Reference: US20150368642A1, “LNA OLIGONUCLEOTIDE CARBOHYDRATE CONJUGATES” (HOFFMANN-LA ROCHE INC., priority 2013, published 2015)
Strand notation (5' to 3'): a small letter for the sugar, then the base; units joined by * are phosphorothioate-linked, units joined directly phosphodiester-linked; [ ] holds rarer units or linkages, { } end groups; capitals alone tell only the bases. l = locked nucleic acid (LNA); [5mC] = 5-methylcytosine; d = 2'-deoxy (DNA)

Key:
[1] = In vitro cleavage in kidney homogenate; assay type: in vitro ADME, NMRI mice; details: 200 μg/g tissue, 24 hours at 37°
Description: (§1) Liver, kidney and serum (see table below) were spiked with oligonucleotide SEQ ID NO 21 to concentrations of 200 μg/g tissue. Liver and kidney samples collected from NMRI mice were homogenized in a homogenisation buffer (0.5% Igepal CA-630, 25 mM Tris pH 8.0, 100 mM NaCl, pH 8.0 (adjusted with 1 N NaOH). The homogenates were incubated for 24 hours at 37° and thereafter the homogenates were extracted with phenol-chloroform. The content of cleaved and non cleaved oligonucleotide in the extract from liver and kidney and from the serum were determined against a standard using the above HPLC method.

[2] = In vitro cleavage in liver homogenate; assay type: in vitro ADME, NMRI mice; details: 200 μg/g tissue, 24 hours at 37°
Description: as §1

[3] = In vitro cleavage in serum; assay type: in vitro ADME; details: 200 μg/g
Description: as §1

[4] = test system: HBV; test: HBV mouse hydrodynamic tailvein injection model, HBV DNA in liver by qPCR; assay type: in vivo, Balb/C mouse; details: Balb/C mice, single injection 24 hours before hydrodynamic injection; SEQ ID 55 2 and 10 mg/kg, SEQ ID 56 2.7 and 13.5 mg/kg
Source text: An LNA oligomer can be assessed for antiviral effect in vivo in a mouse strain, such as BALB/c or C57B/6, where HBV replication can be established by hydrodynamic tail vein injection of a plasmid, such as pAAV/HBV1.3, expressing a partially repeated HBV pregenomic RNA (J Virol. 1995 October; 69(10):6158-69) or pAAV2/HBV1.3, a derivative thereof (WuxiAppTech, Wuxi, China). The injection of the plasmid in a high volume of saline, equal to 8-12% of the body mass of the mouse, will result in the accumulation and expression of the viral pregenomic RNA in the liver, subsequently leading to the establishment of an acute HBV infection. Treatment of the animals with an LNA oligomer can be initiated 1 or more days before the injection of the plasmid or 1 day after the injection of the plasmid. Delivery of the LNA oligomer in saline can be done by intravenous or subcutaneous injection.
An in vivo experiment was performed on SEQ ID 55 and SEQ ID 56, the latter being a GalNAC conjugate of the former (conj1a). The LNA compounds were tested for efficacy against HBV in the mouse hydrodynamic tailvein injection model using the Balb/C mouse strain. LNA compounds were be tested at equimolar doses; 2 and 10 mg/kg, single injection (SEQ ID 55) and at 2.7 and 13.5 mg/kg, single injection (SEQ ID 56). The LNA anti-HBV compounds were compared to saline and to entecavir, an inhibitor of the HBV reverse transcriptase. Entecavir was dosed p.o. daily at 0.1 mg/kg. Where applicable, the animals were treated with the LNA compound 24 hours before the hydrodynamic injection. Entecavir was given in daily doses as described starting 24 hours after the hydrodynamic injection. […] All the animals were monitored on a daily basis for body weight changes and clinical signs for the duration of the in vivo study. […] All the blood samples were collected in tubes containing heparin sodium The portion of the left lobe of each liver was used to determine the level of HBV DNA replication by qPCR, as copies per unit weight of liver in which the quantity of total HBV DNA level is subtracted by the quantity of pAAV2/HBV DNA level. […]

[5] = test system: HBV; details: WO2011/47312; cited from earlier work

| Substance | % cleaved after 24 hrs kidney homogenate [1] [%] | % cleaved after 24 hrs liver homogenate [2] [%] | % cleaved after 24 hours in serum [3] [%] | effect on replication of HBV / HBV DNA level in the liver [4] | effectiveness against HBV as highlighted in the art [5] |
| --- | --- | --- | --- | --- | --- |
| 21 (TCAGCATTGGTATTCA; LNA gapmer conjugate, pattern not given here) [compound 21] | 95 | 83 | 0 |  |  |
| SEQ ID NO 55: 5′-GsAsGsGscsastsasgscsasgs^mCsAsGsG-3′; HBV LNA gapmer disclosed in WO2011/47312 (lG*lA*lG*lG*dC*dA*dT*dA*dG*dC*dA*dG*l[5mC]*lA*lG*lG) [reference compound] |  |  |  | little effect on the replication of HBV in the liver | particularly effective against HBV |
